Laboratory results as given in paper PMC4378939.

Key:
[1] = target: single domain antibody against GFP with a six histidine-tag at the C-terminal (GFP-Nb) (llama); assay: SPR; GFP-Nb diluted in NTA running buffer of pH 4.0-10.5, then captured on Ni:NTA chip; 30 nM GFP as analyte; constants given for the whole pH range
[2] = target: single domain antibody against GFP with a six histidine-tag at the C-terminal (GFP-Nb) (llama); assay: SPR; BIAcore X100, 25°C; GFP-Nb captured by its His tag on anti-polyhistidine antibody amine-coupled to a CM5 chip, GFP as analyte, 30 μl/min; 10 mM HEPES pH 7.4, 0.15 M NaCl, 0.05% tween 20; kon and koff from 1:1 fit, KD from end-point response (Hill equation)
[3] = target: single domain antibody against GFP with a six histidine-tag at the C-terminal (GFP-Nb) (llama); assay: SPR; BIAcore X100, 25°C; GFP-Nb amine-coupled to a CM5 chip (~2500 R.U.), GFP as analyte (0.2-1000 nM; 10 nM with dissociation followed for 36000 s for koff); 10 mM HEPES pH 7.4, 0.15 M NaCl, 0.05% tween 20; KD from end-point response (Hill coefficient 1)
[4] = target: single domain antibody against GFP with a six histidine-tag at the C-terminal (GFP-Nb) (llama); assay: SPR; BIAcore X100, 25°C; GFP-Nb (~3 nM, ~50 R.U.) captured by its His tag on Ni:NTA chip, GFP as analyte (0.1-1000 nM), 30 μl/min; 10 mM HEPES pH 7.4, 0.15 M NaCl, 50 μM EDTA, 0.05% tween 20; kon and koff from 1:1 fit, KD from end-point response (Hill equation)
[5] = target: single domain antibody against GFP with a six histidine-tag at the C-terminal (GFP-Nb) (llama); assay: SPR; GFP-Nb captured on Ni:NTA chip; 30 nM GFP diluted in NTA running buffer with different NaCl concentrations (up to 1 M) as analyte; constants given for all NaCl concentrations
[6] = target: single domain antibody against GFP with a six histidine-tag at the C-terminal (GFP-Nb) (llama); assay: SPR; GFP-Nb heated for 30 min at 25-100°C and cooled 30 min at room temperature, then captured on Ni:NTA chip; 30 nM GFP as analyte; NTA running buffer, 25°C; constants given for the whole temperature range

Sequence of single domain antibody against GFP with a six histidine-tag at the C-terminal (GFP-Nb) (llama) (heavy, as listed by the source): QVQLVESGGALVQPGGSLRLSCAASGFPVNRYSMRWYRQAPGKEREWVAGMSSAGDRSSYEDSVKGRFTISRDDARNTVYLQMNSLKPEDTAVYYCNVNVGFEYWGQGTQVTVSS

koff [1]: 0.00064 s⁻¹
kon [1]: 1.4e+06 M⁻¹ s⁻¹
Kd [2]: 5.5 nM
koff [2]: 0.00029 s⁻¹
kon [2]: 1e+06 M⁻¹ s⁻¹
Kd [3]: 9.6 nM
koff [3]: 1.4e-05 s⁻¹
Kd [4]: 6.1 nM
koff [4]: 0.00071 s⁻¹
kon [4]: 1.1e+06 M⁻¹ s⁻¹
koff [5]: 0.00063 s⁻¹
kon [5]: 1.5e+06 M⁻¹ s⁻¹
koff [6]: 0.00063 s⁻¹
kon [6]: 1.5e+06 M⁻¹ s⁻¹
Substance: Green Fluorescent Protein (GFP) (from UniProt P42212 1-238) (natural protein)
